Data as given in patent US11999794B2, “Human mesothelin chimeric antigen receptors and uses thereof” (Novartis AG, priority 2013, dated 2024).
Substitutions are numbered along the chain they refer to. “Also recorded” adds a separate entry of the source.

B1: M5: human anti-mesothelin scFv SEQ ID NO: 43; full CAR SEQ ID NO: 67 (protein)
scFv: QVQLVQSGAEVEKPGASVKVSCKASGYTFTDYYMHWVRQAPGQGLEWMGWINPNSGGTNYAQKFQGRVTMTRDTSISTAYMELSRLRSDDTAVYYCASGWDFDYWGQGTLVTVSSGGGGSGGGGSGGGGSGGGGSDIVMTQSPSSLSASVGDRVTITCRASQSIRYYLSWYQQKPGKAPKLLIYTASILQNGVPSRFSGSGSGTDFTLTISSLQPEDFATYYCLQTYTTPDFGPGTKVEIK
B2: M11: human anti-mesothelin scFv SEQ ID NO: 49; full CAR SEQ ID NO: 73 (protein)
scFv: B1 scFv with V5Q, E12K, D31G, K63N, S84R, V138R

Tests used:
[1] = target: T1, biotinylated mesothelin ECD (Homo sapiens, UniProt Q13421); test: SPR relative epitope binning in comparison to SS1; assay type: binding; details: 50 nM SS1 captured first, then scFv at 100 nM
T1 construct: made in house; host or cells: HEK293F (transient)
T1 sequence (Q13421 with tags, fused parts or gaps): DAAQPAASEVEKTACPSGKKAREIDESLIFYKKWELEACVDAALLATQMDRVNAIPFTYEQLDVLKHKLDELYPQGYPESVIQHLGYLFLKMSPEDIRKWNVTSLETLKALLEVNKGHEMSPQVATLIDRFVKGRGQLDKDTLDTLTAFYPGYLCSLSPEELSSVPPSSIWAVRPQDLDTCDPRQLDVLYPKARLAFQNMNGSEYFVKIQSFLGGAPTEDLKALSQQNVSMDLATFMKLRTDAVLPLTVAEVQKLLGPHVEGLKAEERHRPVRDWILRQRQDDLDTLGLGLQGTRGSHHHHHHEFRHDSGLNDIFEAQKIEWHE
Description: In embodiments, the competition assay is an SPR-based assay. Briefly, the antigen, e.g., human mesothelin, is immobilized on a surface. Through a microflow system, a reference antibody is injected over the antigen layer. Upon binding of the reference antibody to the antigen, an increase in signal, typically expressed in response units (RU) is detected, e.g., reference signal. After a desired time, a test antibody is injected over the antigen layer. If the test antibody binds to a different region or epitope of the antigen, then an additional increase in signal is detected, e.g., a 5% or more, 10% or more, 15% or more, 20% or more, 25% or more, 30% or more, 35%, or more, 40% or more, 45% or more, 50% or more, 55% of more, 60% or more, 65% or more, 70% or more, 75% or more, 80% or more, 85% or more, 90% or more, or 95% or more increase in signal, e.g., RU, as compared to the highest signal detected upon binding of the reference antibody, e.g., the reference signal. If the test antibody binds to the same region or epitope of the antigen, then little or no increase in signal, e.g., RU, will be detected, e.g., less than 20%, less than 15%, less than 10%, less than 5%, less than 4%, less than 3%, less than 2%, or less than 1% increase in signal, e.g., RU, as compared to the highest signal detected upon binding of the reference antibody, e.g., the reference signal. When using this SPR-based competition assay, an antibody is said to compete with the reference antibody when less than 20%, less than 15%, less than 10%, less than 5%, less than 4%, less than 3%, less than 2%, or less than 1% increase in signal, e.g., RU, is detected when compared to the reference signal detected upon binding of the reference antibody to the antigen. An antibody is said to not compete, or compete poorly, with a reference antibody when a 5% or more, 10% or more, 15% or more, 20% or more, 25% or more, 30% or more, 35%, or more, 40% or more, 45% or more, 50% or more, 55% of more, 60% or more, 65% or more, 70% or more, 75% or more, 80% or more, 85% or more, 90% or more, or 95% or more increase in signal, e.g., RU, is detected when compared to the reference signal detected upon binding of the reference antibody to the antigen.
To determine the relative binding epitope of each of the scFvs in comparison to SS1, 50 nM SS1 was captured by biotinylated mesothelin ECD immobilized on a streptavidin sensor chip at a contact time of 180 seconds resulting in a relative density of 70 RU. Purified scFv at 100 nM (M5, M11, M12, M14, M16, M17, M21, or M23) was then immediately injected over the chip to minimize dissociation of the SS1/mesothelin complex. Binding of the secondary scFv was monitored for 270 seconds.

Ovcar8 = test: OVCAR8 subcutaneous xenograft, single and double dose (Example 17); assay type: in vivo, NSG mice; details: for tumor growth / anti-tumor activity, single dose: 4×10^6 CAR+ T cells on day 14; for tumor growth / anti-tumor activity, double dose: 4×10^6 CAR+ T cells on days 14 and 19; for delta T/C value: day 52, versus Isotype group, single dose; for regression value / Regression (%) / Delta T/C (%): day 52; for Regression (%): double dose (second identical dose 5 days later); for Delta T/C (%): single dose of 4×10^6 CAR T cells i.v. on day 14, versus the Isotype group
Description: Cell line: OVCAR8 is a human ovarian cancer cell line that was derived from a patient with ovarian adenocarcinoma, and has been transduced to express mCherry. Cells were grown in RMPI medium containing 10% fetal bovine serum. This cell line grows adherent in tissue culture flasks. This cell line forms tumors in mice when implanted subcutaneously in the flank and mixed with matrigel. The addition of matrigel to the cells during the implantation allow for a matrix to develop in the flank of the mouse that provides a structure for the tumor cells to start growing on. Over 10-12 days, the matrigel plug degrades and the solid tumor that remains is made up of tumor cells and surrounding stromal cells. The OVCAR8 cells have been modified to express mCherry, so that that tumor cell growth can also be monitored by imaging the mice.
Mice: 6 week old NSG (NOD.Cg-Prkdc^scidIl2rg^tm1Wjl/SzJ) mice were received from the Jackson Laboratory (stock number 005557). Animals were allowed to acclimate in the Novartis NIBRI animal facility for at least 3 days prior to experimentation. Animals were handled in accordance with Novartis ACUC regulations and guidelines. Electronic transponders for animal identification were implanted on the left flank one day prior to tumor implantation. Mice were shaved on the right flank prior to tumor implantation.
Tumor implantation: OVCAR8 cells in log phase were harvested after tyrpsinization with 0.25% trypsin-EDTA. The cells were washed in 50 ml falcon tubes at 1200 rpm for 5 minutes, once in growth media and then two times in cold sterile PBS. The cells were resuspended in PBS at a concentration of 100×10^6 per ml and kept on ice. The PBS solution containing the cells was then mixed 1:1 with matrigel, resulting in a final concentration of 50×10^6 cells per ml of PBS-matrigel. The cells were placed on ice and immediately implanted in mice. Tumors were implanted subcutaneously in 200 ul on the right flank.
The OVCAR8 model endogenously expresses mesothelin and thus, can be used to test the in vivo efficacy of mesothelin directed CAR T cells. This model grows well when implanted subcutaneously in the flank of mice and can be calipered for tumor volume measurements. Upon implantation of 10×10^6 tumor cells in a 50:50 mix of PBS and matrigel, the tumors establish and can be accurately measured in one week. Within 13-15 days, the mean tumor volume is 100-200 mm^3, with tumors reaching an endpoint volume (1000-1200 mm^3) by 60-65 days. Anti-tumor activities of therapeutic agents are often tested once tumors are fully engrafted and matrigel resorbed. Thus, there is a large window with this model during which the anti-tumor activity of the CAR T cells can be observed.
CAR T cell dosing: Mice were dosed with 4×10^6 CART cells (13.3×10^6 total T cells) 14 days after tumor implantation. Cells were partially thawed in a 37 degree Celsius water bath and then completely thawed by the addition of 1 ml of cold sterile PBS to the tube containing the cells. The thawed cells were transferred to a 15 ml falcon tube and adjusted to a final volume of 10 mls with PBS. The cells were washed twice at 1000 rpm for 10 minutes each time and then counted on a hemocytometer. T cells were then resuspended at a concentration of 133×10^6 cells per ml of cold PBS and kept on ice until the mice were dosed. The mice were injected intravenously via the tail vein with 100 ul of the T cells for a dose of 4×10^6 CAR T cells (13.3×10^6 total T cells) per mouse. Seven mice per group were either treated with 100 ul of PBS alone (PBS) or T cells transduced with an isotype CAR (Isotype). 14 mice per group were treated with either the SS1 mesothelin CAR T cells, M5 mesothelin CAR T cells, or M11 mesothelin CART cells. Five days later the SS1, M5, and M11 groups were split in half and seven mice in each group were treated with an identical second dose of the CAR T cells. […]

Molecule	relative epitope binning against SS1 on human mesothelin [1]	tumor growth / anti-tumor activity, single dose (Ovcar8)	tumor growth / anti-tumor activity, double dose (Ovcar8)	delta T/C value (Ovcar8)	regression value (Ovcar8; double dose)	mice with complete regression (Ovcar8; double dose)	Regression (%) (Ovcar8)	Delta T/C (%) (Ovcar8)
B1	bind to a different epitope than SS1; also recorded: bind to a unique epitope	clear anti-tumor activity	regression as opposed to tumor growth inhibition	30.28%	−63.90%	four out of seven mice	−63.90%	30.28%
B2	bind to a different epitope than SS1; also recorded: bind to a unique epitope	clear anti-tumor activity	regression as opposed to tumor growth inhibition	52.91%	−15.80%		−15.80%	52.91%
